Entries after “also recorded” stand apart in the source; their conditions may differ. Values belong to the molecule of their own block, whether it stands above or below them.
How the values were obtained:
[1] = system: DEBS or DEBS1+TE; details: cited from earlier work
[2] = Stability of acyl-CoAs in TCA and mutase assay buffer (HPLC); assay type: physicochemical; details: five minutes under the mutase assay conditions, 30° C
Protocol: To test whether acyl-CoAs degrade in TCA, the following tests were conducted. The CoA mix consisted of 1.6 mM each of malonyl-, methylmalonyl-, succinyl-, acetyl-, and propionyl-CoA, plus 0.5 mM CoA. An aliquot (10 μL) of this mix was added to 100 μL 10% TCA, 50 μL were immediately injected to the HPLC for CoA analysis, and the remainder was promptly frozen on dry ice. The frozen portion was then thawed and loaded immediately to the HPLC. Again, 10 μL of the CoA mix were added to 100 μL 10% TCA, 50 μL were left on ice for 15 minutes and then injected to the HPLC, the remainder was left at 4° C. overnight and injected to the HPLC the next morning. The area under each CoA peak was noted. This same procedure was followed but using a mixture of TCA and buffer A from the mutase assay.
The CoA analysis described here is carried out on cells which are lysed in 10% TCA. […] Thus, the CoAs are stable in TCA and in the mutase assay buffer after the cells are lysed or after the assays are completed, and prior to HPLC analysis.
Although the CoAs are stable in TCA and buffer at 4° C., they degraded at 30° C., the temperature at which the mutase assay was performed. In five minutes under the assay conditions, about 4% of the methylmalonyl-CoA hydrolyzed to CoA. […] Thus, the mutase assay is suboptimal for extremely quantitative results.

[3] = Spontaneous chemical epimerization between (R)- and (S)-mm-CoA; assay type: physicochemical; details: in 15 minutes
[4] = substrate: C[C@H](C(=O)O)C(=O)SCCNC(=O)CCNC(=O)[C@H](O)C(C)(C)COP(=O)(O)OP(=O)(O)OC[C@H]1O[C@@H](n2cnc3c(N)ncnc32)[C@H](O)[C@@H]1OP(=O)(O)O; assay: Methylmalonyl-CoA epimerase steady state kinetics (transcarboxylase/malate dehydrogenase coupled assay, A340); assay type: biochemical, Streptomyces coelicolor; details: other: 30° C, pH 6.9, (2RS)-methylmalonyl-CoA 27 μM to 160 μM, (2R) concentration assumed one-half of (2RS), epimerase activated with CoCl2
Protocol: (§1) Methylmalonyl-CoA epimerase assay. Enzyme activity was assayed at 30° C. using a modification of a reported method (27). The epimerase (0.54 mg/ml) was first activated with 100 μM CoCl2 at 4° C. for 1 h. Reaction mixtures (1.5 mL) contained 0.2 M potassium phosphate buffer pH 6.9, 0.1 M NH4SO4, 5 mM Na pyruvate, 0.08 mM (2RS)-methylmalonyl-CoA, 0.05 units transcarboxylase, 0.16 mM NADH, and 2.5 units of malate dehydrogenase. The reaction was initiated with (2RS)-methylmalonyl-CoA, and the decrease in A340 concomitant with consumption of the S-isomer was allowed to stabilize. Limiting epimerase was added to catalyze conversion of the remaining R- to S-isomer, and the initial rate and total decrease in A340 were monitored. For kinetic studies, -1.2 nM epimerase was incubated with varying amounts of (2RS)-methylmalonyl-CoA (27 μM to 160 μM). The (2R)-methylmalonyl-CoA concentrations were assumed to be one-half of the concentration of (2RS)-methylmalonyl-CoA.
S. coelicolor methylmalonyl-CoA epimerase gene. The P. shermanii methylmalonyl-CoA epimerase DNA sequence was used to search the S. coelicolor genomic database (www.sanger.ac.uk/Projects/S coelicolor) using the BLAST programs at the National Center for Biotechnology Information, NIH website (37), and S. coelicolor gene 8F4.02c was identified as a putative methylmalonyl-CoA epimerase. […]

[5] = substrate: C[C@H](C(=O)O)C(=O)SCCNC(=O)CCNC(=O)[C@H](O)C(C)(C)COP(=O)(O)OP(=O)(O)OC[C@H]1O[C@@H](n2cnc3c(N)ncnc32)[C@H](O)[C@@H]1OP(=O)(O)O; assay: as above; assay type: biochemical, Propionibacterium freudenreichii subsp. shermanii; details: other: 30° C, pH 6.9, (2RS)-methylmalonyl-CoA 27 μM to 160 μM, (2R) concentration assumed one-half of (2RS), epimerase activated with CoCl2
Protocol: as §1
Heterologous expression and purification of the epimerases. E. coli BL21(DE3) harboring either pKOS143-28-8 (P. shermanii epimerase) or pKOS117-174-A37 (S. coelicolor epimerase) was grown in 750 ml LB (100 μg/ml carbenicillin) at 37° C. until late log phase, then induced with IPTG to 1 mM final concentration and grown for an additional 3 h at 30° C. The cells were collected by centrifugation, and the pellets were stored at −80° C. […]

[6] = Methylmalonyl-CoA mutase assay in crude cell extracts (HPLC, conversion of methylmalonyl-CoA to succinyl-CoA); assay type: biochemical; details: cells grown without hydroxocobalamin; extracts not supplemented with B12
Protocol: The mutase assay was performed as follows. All operations were performed in the dark or under a red safelight. The pellet from 25 mL of culture was thawed, washed in buffer C (50 mM potassium phosphate pH 7.4, 5 mM EDTA, 10% glycerol), and resuspended in 0.5 mL of buffer C containing protease inhibitors (1 tablet per 10 mL of buffer). Following sonication on ice, the extract was clarified by centrifugation at 4° C. for 10 minutes at maximum speed in an Eppendorf microfuge; the supernatent was assayed. Enzyme assays contained, in a final volume of 100 μL, 0.2 mM (2R,2S)-methylmalonyl-CoA, mutase extract, and buffer C containing protease inhibitors. Reactions for assays with vitamin B12 were as above but contained 0.01 mM vitamin B12, in which case the mutase extract was incubated with the vitamin B12 in a total volume of 75 μL for 5 minutes at 30° C. prior to initiation of reaction with methylmalonyl-CoA. After the desired length of incubation at 30° C., the reaction was stopped by the addition of 50 μL of 10% trichloroacetic acid (TCA) and placed on ice for approximately 10 minutes. […] An aliquot (100 μL) of the supernatant was injected onto the HPLC to quantify conversion of methylmalonyl-CoA to succinyl-CoA. […]
Methylmalonyl-CoA mutase assay. […] After centrifugation, 100 μl of the supernatant was analyzed by HPLC to quantify conversion of methylmalonyl-CoA to succinyl-CoA.

Molecule: C[C@@H](C(=O)O)C(=O)SCCNC(=O)CCNC(=O)[C@H](O)C(C)(C)COP(=O)(O)OP(=O)(O)OC[C@H]1O[C@@H](n2cnc3c(N)ncnc32)[C@H](O)[C@@H]1OP(=O)(O)O [(2S)-methylmalonyl-CoA]
Km [1]: ~25 µM

hydrolyzed to CoA [2]: about 4%
spontaneous chemical epimerization [3]: approximately 3%
Molecule: CC(C(=O)O)C(=O)SCCNC(=O)CCNC(=O)[C@H](O)C(C)(C)COP(=O)(O)OP(=O)(O)OC[C@H]1O[C@@H](n2cnc3c(N)ncnc32)[C@H](O)[C@@H]1OP(=O)(O)O (stereo partly drawn) [methylmalonyl-CoA]

hydrolyzed to CoA [2]: comparable rate
Molecule: CC(C)(COP(=O)(O)OP(=O)(O)OC[C@H]1O[C@@H](n2cnc3c(N)ncnc32)[C@H](O)[C@@H]1OP(=O)(O)O)[C@@H](O)C(=O)NCCC(=O)NCCSC(=O)CCC(=O)O [succinyl-CoA]

B1: Streptomyces coelicolor methylmalonyl-CoA epimerase, wild type, recombinant (gene 8F4.02c) (Streptomyces coelicolor A3(2)) (protein)
chain: MLTRIDHIGIACHDLDATVEFYRATYGFEVFHTEVNEEQGVREAMLKINDTSDGGASYLQLLEPTREDSAVGKWLAKNGEGVHHIAFGTADVDADAADIRDKGVRVLYDEPRRGSMGSRITFLHPKDCHGVLTELVTSAAVESPEH
notes: (2RS)-methylmalonyl-CoA substrate
Km [4]: 57 µM
kcat [4]: 75 s⁻¹

B2: Propionibacterium shermanii methylmalonyl-CoA epimerase (EC 5.1.99.1), wild type, recombinant, GenBank AY046899 (Propionibacterium freudenreichii subsp. … (protein)
chain: MSNEDLFICIDHVAYACPDADEASKYYQETFGWHELHREENPEQGVVEIMMAPAAKLTEHMTQVQVMAPLNDESTVAKWLAKHNGRAGLHHMAWRVDDIDAVSATLRERGVQLLYDEPKLGTGGNRINFMHPKSGKGVLIELTQYPKN
Km [5]: 38 µM
kcat [5]: 150 s⁻¹

B3: mutase: methylmalonyl-CoA mutase (EC 5.4.99.2) from P. shermanii, expressed in E. coli (protein, UniProt P11652 2-638; P11653 2-728, looked up)
Methylmalonyl-CoA mutase … 1: SSTDQGTNPADTDDLTPTTLSLAGDFPKATEEQWEREVEKVLNRGRPPEKQLTFAECLKRLTVHTVDGIDIVPMYRPKDAPKKLGYPGVAPFTRGTTVRNGDMDAWDVRALHEDPDEKFTRKAILEGLERGVTSLLLRVDPDAIAPEHLDEVLSDVLLEMTKVEVFSRYDQGAAAEALVSVYERSDKPAKDLALNLGLDPIAFAALQGTEPDLTVLGDWVRRLAKFSPDSRAVTIDANIYHNAGAGDVAELAWALATGAEYVRALVEQGFTATEAFDTINFRVTATHDQFLTIARLRALREAWARIGEVFGVDEDKRGARQNAITSWRDVTREDPYVNILRGSIATFSASVGGAESITTLPFTQALGLPEDDFPLRIARNTGIVLAEEVNIGRVNDPAGGSYYVESLTRSLADAAWKEFQEVEKLGGMSKAVMTEHVTKVLDACNAERAKRLANRKQPITAVSEFPMIGARSIETKPFPAAPARKGLAWHRDSEVFEQLMDRSTSVSERPKVFLACLGTRRDFGGREGFSSPVWHIAGIDTPQVEGGTTAEIVEAFKKSGAQVADLCSSAKVYAQQGLEVAKALKAAGAKALYLSGAFKEFGDDAAEAEKLIDGRLFMGMDVVDTLSSTLDILGVAK
Methylmalonyl-CoA mutase … 2: STLPRFDSVDLGNAPVPADAARRFEELAAKAGTGEAWETAEQIPVGTLFNEDVYKDMDWLDTYAGIPPFVHGPYATMYAFRPWTIRQYAGFSTAKESNAFYRRNLAAGQKGLSVAFDLPTHRGYDSDNPRVAGDVGMAGVAIDSIYDMRELFAGIPLDQMSVSMTMNGAVLPILALYVVTAEEQGVKPEQLAGTIQNDILKEFMVRNTYIYPPQPSMRIISEIFAYTSANMPKWNSISISGYHMQEAGATADIEMAYTLADGVDYIRAGESVGLNVDQFAPRLSFFWGIGMNFFMEVAKLRAARMLWAKLVHQFGPKNPKSMSLRTHSQTSGWSLTAQDVYNNVVRTCIEAMAATQGHTQSLHTNSLDEAIALPTDFSARIARNTQLFLQQESGTTRVIDPWSGSAYVEELTWDLARKAWGHIQEVEKVGGMAKAIEKGIPKMRIEEAAARTQARIDSGRQPLIGVNKYRLEHEPPLDVLKVDNSTVLAEQKAKLVKLRAERDPEKVKAALDKITWAAGNPDDKDPDRNLLKLCIDAGRAMATVGEMSDALEKVFGRYTAQIRTISGVYSKEVKNTPEVEEARELVEEFEQAEGRRPRILLAKMGQDGHDRGQKVIATAYADLGFDVDVGPLFQTPEETARQAVEADVHVVGVSSLAGGHLTLVPALRKELDKLGRPDILITVGGVIPEQDFDELRKDGAVEIYTPGTVIPESAISLVKKLRASLDA
mutase activity [6]: no mutase activity was observed; also recorded: undetectable
